Laboratory results taken from publication PMC2714593, “Insights into the role of Val45 and Gln182 of Escherichia coli MutY in DNA substrate binding and specificity”.

Columns and labels:
EcMutY V45A = target: T1, EcMutY V45A (Escherichia coli, UniProt P17802 1-350, V45A); assay: EMSA; 20 mM Tris-HCl pH 7.6, 80 mM NaCl, 1 mM DTT, 1 mM EDTA, 2.9% glycerol, 20 ng poly dI/dC per 20 ul, 0.09 nM labeled DNA, 30 min at 30 C; 4% PAGE in TBE; conditions: protein: recombinant; label: 5'-32P on X strand; blunt; T/G mismatch at strand 1 position 22
T1 sequence: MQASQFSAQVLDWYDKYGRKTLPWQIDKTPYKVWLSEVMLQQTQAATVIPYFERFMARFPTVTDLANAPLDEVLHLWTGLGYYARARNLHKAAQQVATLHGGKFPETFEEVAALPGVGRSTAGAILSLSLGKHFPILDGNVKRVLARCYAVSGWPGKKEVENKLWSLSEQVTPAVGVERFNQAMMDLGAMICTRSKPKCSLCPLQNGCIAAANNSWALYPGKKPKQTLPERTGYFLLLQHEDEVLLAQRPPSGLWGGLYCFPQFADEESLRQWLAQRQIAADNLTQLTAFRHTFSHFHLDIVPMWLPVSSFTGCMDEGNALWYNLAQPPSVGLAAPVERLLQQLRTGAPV

EcMutY Q182L = target: T2, EcMutY Q182L (Escherichia coli, UniProt P17802 1-350, Q182L); assay: as above; conditions: protein: recombinant; label: 5'-32P on X strand; blunt; T/G mismatch at strand 1 position 22
T2 sequence: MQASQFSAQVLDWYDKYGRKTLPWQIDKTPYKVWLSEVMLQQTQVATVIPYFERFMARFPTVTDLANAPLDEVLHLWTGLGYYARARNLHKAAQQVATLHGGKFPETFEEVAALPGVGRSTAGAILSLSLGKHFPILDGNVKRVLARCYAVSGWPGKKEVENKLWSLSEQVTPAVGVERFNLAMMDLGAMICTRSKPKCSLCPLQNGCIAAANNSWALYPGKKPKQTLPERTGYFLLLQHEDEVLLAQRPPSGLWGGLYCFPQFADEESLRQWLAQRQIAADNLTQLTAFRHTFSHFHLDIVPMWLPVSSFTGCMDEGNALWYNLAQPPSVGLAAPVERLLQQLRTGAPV

B1: T/G 44-mer (dsDNA)
DNA 1: AATTGGGCTCCTCGAGGAATTTGCCTTCTGCAGGCATGCCCCGG
DNA 2: CCGGGGCATGCCTGCAGAAGGCGAATTCCTCGAGGAGCCCAATT
EcMutY V45A
  Kd: 11 ± 4 pM
EcMutY Q182L
  Kd: 43 ± 14 pM
